Measured values from patent US20220378827A1 (EMORY UNIVERSITY, published 2022).

Target: T1, CD5 antigen on T cells (Jurkat, Molt-4, gamma delta T cells) (UniProt P06127 25-495, limits assumed)
T1 sequence (looked up): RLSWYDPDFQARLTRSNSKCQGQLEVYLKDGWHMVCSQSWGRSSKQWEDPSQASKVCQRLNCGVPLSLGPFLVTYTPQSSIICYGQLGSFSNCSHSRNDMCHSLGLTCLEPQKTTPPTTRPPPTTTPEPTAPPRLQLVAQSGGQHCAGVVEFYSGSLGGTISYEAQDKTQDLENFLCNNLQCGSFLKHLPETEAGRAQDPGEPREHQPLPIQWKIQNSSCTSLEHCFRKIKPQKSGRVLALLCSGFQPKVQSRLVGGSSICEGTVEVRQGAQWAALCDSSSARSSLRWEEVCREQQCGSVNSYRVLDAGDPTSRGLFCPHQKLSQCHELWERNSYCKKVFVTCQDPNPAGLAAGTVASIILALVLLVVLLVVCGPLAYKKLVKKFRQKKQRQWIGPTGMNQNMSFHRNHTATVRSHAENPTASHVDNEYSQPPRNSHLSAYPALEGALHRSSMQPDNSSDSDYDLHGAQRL
Assay: cell-based or functional assay

B1: CD5-NSCAR (CD5 scFv non-signaling chimeric antigen receptor) (other)
chain: GAPEIQLVQSGGGLVKPGGSVRISCAASGYTFTNYGMNWVRQAPGKGLEWMGWINTHTGEPTYADSFKGRFTFSLDDSKNTAYLQINSLRAEDTAVYFCTRRGYDWYFDVWGQGTTVTVSSGGGGSGGGGSGGGGSDIQMTQSPSSLSASVGDRVTITCRASQDINSYLSWFQQKPGKAPKTLIYRANRLESGVPSRFSGSGSGTDYTLTISSLQYEDFGIYYCQQYDESPWTFGGGTKLEIKASEQKLISEEDLDNEKSNGTIIHVKGKHLCPSPLFPGPSKPFWVLVVVGGVLACYSLLVTVAFIIFWVRSEWPGKVR
  CD5 expression on non-modified Jurkat T cells in co-culture with CD5-NSCAR-modified Jurkat T cells, 1:1 ratio: < 20%
